Laboratory results as given in patent US20060210568A1, “Methods and compositions for cancer treatment” (priority 2003, published 2006).
“Also recorded” adds a separate entry of the source.

Columns and labels:
Format in all cases: cell-based, human
[1] = tested on: MCF-7 cells; test: Oil Red O staining of lipid droplets; conditions: ADRP overexpressing versus EV MCF-7 cells, FIG. 4B
Procedure: This is also supported by the fact that ADRP overexpressing cells accumulated lipid droplets at a higher level (higher number of droplets per cells and higher number of cells having droplets than the empty vector control MCF-7 cells as shown in FIG. 4A and FIG. 4B. A 5-fold increase in lipid droplets accumulation was observed (FIG. 4B). Specifically, cells were plated at the concentration of 2×10^5 per 35-mm dish in 5% FBS DMEM/F12. After 48 h of incubation, cells were washed once with PBS and fixed in 4% formalin for 30 min. Oil Red O working solution was added to cover all the cells, and the cells were incubated at 37° C. for 1 h. The Working Solution was prepared by mixing 6 ml 0.5% Oil Red O in isopropanol with 4 ml H2O, and centrifuging at 4000 g for 10 min to remove sediments. The plates were washed with tap water twice. Cells were counterstained by Hematoxylin QS (Vector Laboratories, California) for 45 sec, and washed with tap water.

[2] = tested on: MCF-7 cells; test: FACS analysis of apoptosis and G1 phase; conditions: ADRP-MCF-7 versus EV-MCF-7 cells
Source text: Increased of percentage of cells in apoptosis and in G1 phase is shown by FACS analysis of ADRP-MCF-7 cells and EV-MCF-7 cells.

[3] = tested on: beta casein expression in MCF-7 cells; test: beta casein expression by RT-PCR as marker of breast cancer cell differentiation; conditions: versus control cells with no detectable level, FIG. 3A
Source text: We then explored whether growth inhibition of cells overexpressing ADRP was accompanied by stimulated differentiation of the cells. In order to investigate this possibility, we measured the expression of markers of differentiation such as beta casein in the ADRP expressing cells when compared to EV cells. Beta casein is routinely used as a marker of mammary epithelial cell differentiation. We show by RT-PCR that the ADRP overexpressing cells express high level of casein mRNA. In contrast, the control cells had no detectable level of the gene product (see FIG. 3A). In FIG. 3A, GAPDH (Glyceraldehyde-3-phosphate dehydrogenase) loading was used as an internal control for equal sample mRNA expression. […] Measurement of Beta casein expression as marker of breast cancer cell differentiation was by RT-PCR as described above.

[4] = tested on: bcl-2; test: bcl-2 expression in ADRP MCF-7 versus control MCF-7 cells; conditions: ADRP overexpressing versus empty vector control cells, FIG. 5
Source text: This is shown by down-regulation of bcl-2 in ADRP MCF-7 cells when compared to control MCF-7 cells. […] In other words, ADRP overexpression sensitizes the cells to apoptotic stimuli.

[5] = tested on: ADRP overexpressing cells (MCF7-C4); test: proliferation assay, ADRP overexpressing MCF-7 cells; conditions: serum containing medium, with or without hormones and growth factors, FIGS. 1 and 2
Procedure: The vector used to over-express ADRP in MCF-7 cells is the ADRP-pcDNA3 vector described in Gao and Serrero, 1999. The G418 resistance gene was used as selectable marker. MCF-7 cells were transfected with the ADRP-pcDNA3 plasmid, using the lipofectamine method. Specifically, MCF-7 cells (WT) were plated onto 60-mm dish at the concentration of 2×10^5 cell per plate in 5% fetal bovine serum (FBS) in DMEM/F12 (1:1 mixture of Dulbecco's modified Eagle's medium and Ham' nutrient F12 medium) overnight before transfection. Cells were washed once with serum-free DMEM/F12 (without antibiotic). The lipofectamine method was used for the transfection. Specifically, 2 μg mouse ADRP pcDNA3 construct was used. Transfection was carried on according to manufacturer's recommendations, with 15 μl of lipofectamine and 5 hours of incubation. After transfection, the medium was replaced with 5% FBS DMEM/F12 and the cells were incubated overnight. G418 at the concentration of 800 μg/ml was added the day after for selection. Cells were selected with this medium for 3 weeks. Six clones were isolated and subjected to RT-PCR to determine the existence of the transfection construct. […] Cell numbers were counted by hemacytometer every two days. […]

B1: ADRP: 50-kDa adipose differentiation related protein, over-expressed in MCF-7 cells by transfection with mouse ADRP pcDNA3 construct (protein, UniProt P43883 2-425, looked up)
Perilipin-2: AAAVVDPQQSVVMRVANLPLVSSTYDLVSSAYVSTKDQYPYLRSVCEMAEKGVKTVTSAAMTSALPIIQKLEPQIAVANTYACKGLDRMEERLPILNQPTSEIVASARGAVTGAKDVVTTTMAGAKDSVASTVSGVVDKTKGAVTGSVERTKSVVNGSINTVLGMVQFMNSGVDNAITKSELLVDQYFPLTQEELEMEAKKVEGFDMVQKPSNYERLESLSTKLCSRAYHQALSRVKEAKQKSQETISQLHSTVHLIEFARKNMHSANQKIQGAQDKLYVSWVEWKRSIGYDDTDESHCVEHIESRTLAIARNLTQQLQTTCQTVLVNAQGLPQNIQDQAKHLGVMAGDIYSVFRNAASFKEVSDGVLTSSKGQLQKMKESLDEVMDYFVNNTPLNWLVGPFYPQSTEVNKASLKVQQSEVKAQ
modifications: expressed from pcDNA3
notes: 50-kDa adipose differentiation related protein, over-expressed in MCF-7 cells by transfection with mouse ADRP pcDNA3 construct
increase in lipid droplets accumulation [1]: ~5 fold
percentage of cells in apoptosis and in G1 phase [2]: Increased
casein mRNA expression in ADRP overexpressing cells [3]: stimulation of casein expression; also recorded: high level
Bcl-2 expression [4]: dramatically decreased; also recorded: much lower level
growth of cells over-expressing ADRP [5]: grow very slowly
